Assay: soluble on expression in E. coli; label from the status in PepcDB or PDB records

Row | Sequence | soluble on expression in E. coli
1 | MAEGGAADLDTQRSDIATLLKTSLRKGDTWYLVDSRWFKQWKKYVGFDSWDKYQMGDQNVYPGPIDNSGLLKDGDAQSLKEHLIDELDYILLPTEGWNKLVSWYTLMEGQEPIARKVVEQGMFVKHCKVEVYLTELKLCENGNMNNVVTRRFSKADTIDTIEKEIRKIFSIPDEKETRLWNKYMSNTFEPLNKPDSTIQDAGLYQGQVLVIEQKNEDGTWPRGPSTPNVKNSNYCLPSYTAYKNYDYSEPGRNNEQPGLCGLSNLGNTCFMNSAIQCLSNTPPLTEYFLNDKYQEELNFDNPLGMRGEIAKSYAELIKQMWSGKFSYVTPRAFKTQVGRFAPQFSGYQQQDCQELLAFLLDGLHEDLNRIRKKPYIQLKDADGRPDKVVAEEAWENHLKRNDSIIVDIFHGLFKSTLVCPECAKISVTFDPFCYLTLPLPMKKERTLEVYLVRMDPLTKPMQYKVVVPKIGNILDLCTALSALSGIPADKMIVTDIYNHRFHRIFAMDENLSSIMERDDIYVFEININRTEDTEHVIIPVCLREKFRHSSYTHHTGSSLFGQPFLMAVPRNNTEDKLYNLLLLRMCRYVKISTETEETEGSLHCCKDQNINGNGPNGIHEEGSPSEMETDEPDDESSQDQELPSENENSQSEDSVGGDNDSENGLCTEDTCKGQLTGHKKRLFTFQFNNLGNTDINYIKDDTRHIRFDDRQLRLDERSFLALDWDPDLKKRYFDENAAEDFEKHESVEYKPPKKPFVKLKDCIELFTTKEKLGAEDPWYCPNCKEHQQATKKLDLWSLPPVLVVHLKRFSYSRYMRDKLDTLVDFPINDLDMSEFLINPNAGPCRYNLIAVSNHYGGMGGGHYTAFAKNKDDGKWYYFDDSSVSTASEDQIVSKAAYVLFYQRQDTFSGTGFFPLDRETKGASAATGIPLESDEDSNDNDNDIENENCMHTN | soluble
2 | MAELHIIGQIIGATGFPQNSLFCKWGVHTGGAWRLLSGLREGQTQVDMPQTGDMAYWSHPIDLHYTTKGLQGWPKLHLQVWHQDSFGRCQLYGYGYIHVPSSPGQHRLQCVTWRPLGSWQDQLSEMFVGGGPQLRSPDLIYSGADRYRLHTVGMGTVELELCIILRHFDRYGVES | not soluble
3 | MAELKDQLSLLGRKTEYKQDYAPEVLEAFDNKHPENDYWVRFNCPEFTSLCPITGQPDFAEIRISYIPDIKMVESKSLKLYLFSFRNHGAFHEDCVNIIMKDLIKLMNPKYIEVTGIFTPRGGISIYPYANYGRPGTKFEQMAEHRLMNRE | not soluble
4 | MAELYVKPGNKERGWNDPPQFSYGLQTQTGGPKRTPLTKRVAAPQDGSPRAPETSGPPPVDHPPPSSKASRPPPMGSCPATGVEPPSSPVIESETLIEDVLRPLEQALEDCHGHTKKQVCDDISRRLALLREQWAGGKLSIPVKKRMALLVQELLHHQWDAADDIHRSLMVDHVTEVSQWMVGVKRLIAEKKSLSSEETKEEKFTVEPENQTIPGFQQPS | soluble
5 | MAEREFDMTIEEVTIKVAPGLDYKVFGFNGQVPGPLIHVQEGDDVIVNVTNNTSLPHTIHWHGVHQKGTWRSDGVPGVTQQPIEAGDSYTYKFKADRIGTLWYHCHVNVNEHVGVRGMWGPLIVDPKQPLPIEKRVTKDVIMMMSTWESAVADKYGEGGTPMNVADYFSVNAKSFPLTQPLRVKKGDVVKIRFFGAGGGIHAMHSHGHDMLVTHKDGLPLDSPYYADTVLVSPGERYDVIIEADNPGRFIFHDHVDTHVTAGGKHPGGPITVIEYDGVPVDDWYVWKDKDYDPNFFYSESLKQGYGMFDHDGFKGEFEQRQRRPGRKLAAALEHHHHHH | soluble
6 | MAERGFREGTLEEASKILGVDKSSLASLSNLLAEKGVVEVEERVEEHYVLTERGRDALERGLPEEKLVLFLAGRGGEASVEEVRRALGEEAGIALGQAARKGLVVIAGGVVRLAVDQAEALKTITPLKKLLENVASGSKPTVGDELLREALSRGLIRREARRSIVLRLKVNPAEALARARVEAAVLTRDMLKSGEWRRLRFKPYNVKAEPPRVLPARRHFLAEFIERLRDILRELGFREVRGPLVELELFNFDVLFQAQDHPAREIHDSLWIKSPRRGDLSGYSDLVERVASVHERGWKYRWSPEVASRYILRSQTTAVSARILATRPNPPARFFTVGKVFRSDAVGPTRLPEFHQLDGIEGDEGYTFRDLLGRLDEIASMLGLKLKFKPAYFPFTEPSVEGYVKLPNGRWLELFGAGMFRPEVLEAVGVDYPVGAWGFGIERLAMAFYGVSDIRKLYTRNVDEVREMRVRWL | soluble
7 | MAESKAKNMFQKLSLTPKRNHEHDAGRNIETEEELLQKLKRLKLDNDYLHMWLSYEKLATIVENRSTDKTRKPEYGKLIFYYQGAAHALVSIWKRDSDLPFEQYISGDIARLFNKALDVAIRHMDPTVVHTIARDGGVALMSIDKPIEARDVLVRGENHLVAVPADGQLDFLERLIVLYYIMDSILIEERWNEYMVYTDKVWMMTMKEDKRCPLLENIIKEVEQVAVLLLVFQRKVECSERHKQLLASYRLDDWKAPIIKHNPPLSSLNPSEQKVFRRFLFYMMSNKRSVDKVLKHR | not soluble
8 | MAETKRMTVSQALVEFLGHQWTVDGDIRERTIPGMFGIFGHGNVAGIGQALKQYNVEQPELMPYYQARNEQAMVHQSVGYARMHRRRGTYASAASVGPGATNLLTGAALATTNRLPALLLPSDTFATRVADPVLQQLEQPWDIGLTVNDAFRPVSKFFDRVQRPEQLFSIALAAMRVLTDPAETGAVTIALPEDVQAEMLDVPVEFLQDREWHIRRPR | not soluble
9 | MAEVVVIGAGLSGTLMAYELLPQLGKDDRLSVISQGAIYHFVPSNPWVAVGWRKRDEIEIDLVDIMKRKGVRLLTQGAKRLHPTENRVELSDGTSINYDYLVVATGPELAFDEIPGLGPQGHTQSICHVDHASHAKDAFEKLAARPGPVVIGAVQGASCFGPAYEFLFILETELRRRKLRDQVPMTFVTSEPYVGHLGLDGVGDTKGLLEGEMREKHVKWITNARVKGVEAGKMVVEELGEGGAVHKTHELPFAYSMMLPAFRGVEAVRGIDKLTNPRGFVIVDKHQRNPAFPNVFAVGVCVAIAPVGATPVSVGVPKTGFMIESMVTATALNIGALLRGKEPSAQPTWNAICLADFGDSGVAFLAQPQIPPRNVNWSSKGEWVHYAKVAFEKYFLRKMRRGESEPFYERFLLDKLNIAKIKEVRTGTLEHHHHHH | soluble
10 | MAFLSQLQGGFAQLKQKAEAAAPSIADSLNQLKEAPKFMESAFKTGLNKVKLDSLGKVLNVPSLGRTQSPIDIVPVITAFGEHLQNAHFEVTYESTGEFKAVNDGNSIWLMREGNSSELAISFLPEEQYHLDAVNFHWATEPMNGSEHTIGGVGYAGEMHLIHRNTRFATMADALKQPNGVIAIAVFLNESHDDNAVFSPLINLLPQVIYKGSECKLCSFDFQTFFPVAEKTKEFWMYEGSETTDPFRETVNWIVIRAALPISSHQLDKLREVRAGRYDEEFSDKVPMKPLRPIQNPSSRTIQSSFRSVAGAPDLGFRQ | not soluble
11 | MAFNSALFDGMVIFSEVVTSGSFTQAALNSGHSTSYISKEIGKLEERLGVRLLHRTTRTLRLTPEGELYFQQCQQLIEDAQMAENSITGQQEKPKGRLKVSCPVGFALSRLRPILGKFTDLYPDIILELDLNDKKIDIVAEGFDMAIRASHQLEDSSLISRRFLRSKAITIASPGYLKKHGAPLYPHDLSSHKTIGYAYVKQGAIWDFFDKNKQPFSVQLNSQVITNNSFMALSLCLAEQGITRIPHFHLTDELETGKLVELFADYPKLTIDIFMVYPSRKHMSAKVRCFMDFISEHLGD | not soluble
12 | MAGASVKVAVRVRPFNSREMSRDSKCIIQMSGSTTTIVNPKQPKETPKSFSFDYSYWSHTSPEDINYASQKQVYRDIGEEMLQHAFEGYNVCIFAYGQTGAGKSYTMMGKQEKDQQGIIPQLCEDLFSRINDTTNDNMSYSVEVSYMEIYCERVRDLLNPKNKGNLRVREHPLLGPYVEDLSKLAVTSYNDIQDLMDSGNKPRTVAATNMNETSSRSHAVFNIIFTQKRHDAETNITTEKVSKISLVDLAGSERADSTGAKGTRLKEGANINKSLTTLGKVISALAEMDSGPNKNKKKKKTDFIPYRDSVLTWLLRENLGGNSRTAMVAALSPADINYDETLSTLRYADRAKQIRNTVSVNHHHHH | soluble
13 | MAGDPMFKKRLNKDKINDCYTWEEELPDGSYDMGFHGNLNHMEKGKSGYVTHKQLDKKLEVFKQDLLVELSEKFVTKEEFRAQGKQIKELQIEQKAQGKTLQLILEALQGINKRLDKLESKLEHHHHHH | soluble
14 | MAGDPMKKLAFAITATSGAAAFLTHHDAQASTQHTVQSGESLWSIAQKYNTSVESIKQNNQLDNNLVFPGQVISVGGSDAQNSSNTSPQAGSASSHTVQAGESLNIIASRYGVSVDQLMAANNLRGYLIMPNQTLQIPNGGSGGTTPTATTGSNGNASSFNHQNLYTAGQCTWYVFDRRAQAGSPISTYWSDAKYWAGNAANDGYQVNNTPSVGSIMQSTPGPYGHVAYVERVNGDGSILISEMNYTYGPYNMNYRTIPASEVSSYAFIHLEHHHHHH | not soluble
15 | MAGDPMREITDIAVAESGDSDFKERLETKNAKSWLKSVSAFANGIGGTLYFGVEDRTRRIIGVQDIQLTISKITELIVARITPRPVFECIPLQQKGKDILAVRVDSGKHTPFYYVHDHHHTAYIRMGDESVPATDYQLNELILKGRNETYDSQITEKLRTDYSFTLLEATYLHTLNQHMSDSDYVSFGLAVEDGRLTNAGLLFADQCPLPDSRVFCTRWNGLQRGSVHEDATDDAEYSGNLIYLLKSATEFIRRNTRKGWTKTANGRVEKPDYAERAYFEGVVNALIHRTYDFRGTEVHVEMYDDRLVISSPGGIYGGGELEPMSDGSYISKRRNPILADIFSRLRYMERRGSGIKKIFEATKNLYGYTEEKKPFFLVNKQNDFFLTIPNVNYRSESVTTHDTIHDTIHDTIHDTIHDKIALLLSFCQTPRSREEMMEFVGLRNRDHFQKKYLRPLLEQEKIEMTIPEKPQSKNQKYRTKEVVKLEHHHHHH | soluble
16 | MAGDPMRRTLYRLMIELTNGRFTSYILRKFAQSRLSSIIIPSYAKVFQINQDEMEKGLKEYRTLHELFTRKLKEGKRSIDTDASSIVSPVDGVFADHGPIEDTKTFDIKGKRYSIVDMLGNEERATRYAGGTYMVIYLSPSHYHRIHSPLSGSVTERFVLGRKSYPVNAAGMEYGKEPLSKNYRSVTEVSSDGEHMALVKVGAMFVNSIELLHERDTVQKGEEMAYFTFGSTVVLLFEKDMIEVVQELKSGQELRLGEKIATRLAHKLEHHHHHH | not soluble
17 | MAGDPMRVEVGQIVNTHGIKGEIKVKSNSDFTDVRFQPGQVLTVVHNNNDLEYTVKSHRVHKGLHMLTFEGINNINDIEHLKGSSIYQERDHEDIVLEENEFYYSDIIGCTVFDDQETPIGRVINIFETGANDVWVIKGSKEYLIPYIADVVKEVDVENKKIIITPMEGLLDLEHHHHHH | soluble
18 | MAGDRKRGFIRPDEDYALIEPQRWGLPDYGDSKEKKAKQTAFNYDPSWVPNFDEPEEEQALELTEEQIELIKQGAYQEGLYQGQEAGFKQGYDKGKEEGLQAGHAEGLELGKAEGVSAGQEFIQQQVEVFMNLANQFAQPLELMNAQVEKQLVDMVLCLVKEVVHVEVQTNPQIILDTVKQSVEALPISGHPITLHLNPEDVAIIRSAYGEEDLDCRNWTLVSEPSLNRGDVQIEAGESSINYRMEERIKSVLHSFCGANRHQEGELEHHHHHH | soluble

From the DeepSol protein solubility set
